In the DeepSol protein solubility set:

Assay: soluble on expression in E. coli; label from the status in PepcDB or PDB records

Sequence | soluble on expression in E. coli
MAFHWQSKVNVQHVGVDDMVLLPKLTEQSIVENLKKRLQANSIFTYIGPVLISVNPFKQMPYFTEKEMLLYQGAAQYENAPHIYALADNMYRNMLIDNESQCVIISGESGAGKTVNAKFIMNYISRISGGGQKVQHIKDVILQSNPLLEAFGNSATVRNWNSSRFGKYVEIVFSRGGEPIGGKLSNFLLEKSRVVHQNEGDRNFHVFYQLCAGADKNLRSTFGIGELQYYNYLNMSGVFKADDTDDGKEFESTLHAMKVVGVNDQDQLEVLRIVATVLHIGNITFTEENNFAAVSGKDYLEYPAFLLGLTSADIEAKLTGRKMESKWGTQKEEIDMKLNVEQASYTRDAWVKAIYARLFDYLVKKVNDAMNITSQSTSDNFSVGILDIYGFEIFNNNGFEQFCINFVNEKLQQIFIELTLKAEQEEYVREGIKWTEIDYFDNKIVCDLIETKRPPGIMSLLDDTCAQNHGQREGVDRQLLTTLSKSFAGHPHFGPGSDSFVIKHYAGDVTYNVDGFCDRNRDVLYPDLILLMQKSSRPFIQALFPENVAASAGKRPTTFSTKIRTQANTLVESLMKCSPHYVRCIKPNETKRPNDWEESRVKHQVEYLGLRENIRVRRAGFAYRRAFDKFAQRYAIVSPQTWPCFQGDQQRACEIICDSVHMEKNQYQMGKTKIFVKNPESLFLLEETRERKFDGYARVIQKAWRQFSARKQHIKQKEQAADLMYGKKERRRYSLNRNFVGDYIGLEHHPTLQSLVGKRQRVLFACTANKYDRKFRVTKLDLLLTVNHLTLIGKEKVKNGPEKGKIVEVIKRQFDLPQIKSIGLSPYQDDFVILYLGNDDYSSLLETPFKTEFCTALSKAYKERTNGTLHLDFRSSHVVSYKKMKFDFSDGKRTVQFGNDGTSSAEKTLKPNGKVLNVSIGTGLPNTTRPSTERPQGGYTPRRDQLRTSTRRTKQNNQSYGQNGQSQAMRAPVPAHGMNNNYNQTPAPVSTNHQYSQEPARIPVMGNVINQLNNMNLSGNGNSPAGRGPPPARGPKPPPPAKPKLNPVVIAVYPYEAQDVDELSFEAGAEIELMNKDASGWWQGKVNNRVGLFPGNYVKE | not soluble
EGFRIAFISDLHYKSLLKEKGLNNLVDLLIAQKPDVLLMGGDYQEGCEYVEPLFAALARVKTPMGTFGVMGNNDYERCHDEIIRTMKHYGMRPLEHEVDTLRKDGQQIILAGVRNPFDLKQNGVSPTLALSPNDFVILLVHTPDYVEDVSVANTDIALAGHTHGGQVRVFGYAPIQNSHYGTRF | not soluble
RRYWVVLDGNFEDYLKKFSAKSRNTLLRKIKRFAELSGGEIDWREYCKPEEMHEFYKLAMEVSQKTYQERLLDCGLPSDQQFQENMLALAAEDNVRGYLLFYQKKPIAYIYCPVHDGIALYEYVGHDPEYQRWSPGTLLQYFALQRMFTASHIKIFDFTEGEGAHKAFFATNNQYCADVYYFRR | not soluble
MGSDKIHHHHHHMMLGPEGGEGYVVKLRGLPWSCSIEDVQNFLSDCTIHDGVAGVHFIYTREGRQSGEAFVELESEDDVKLALKKDRESMGHRYIEVFKSHRTEMDWVLKHSGPNSADSANDGFVRLRGLPFGCTKEEIVQFFSGLEIVPNGITLPVDPEGKITGEAFVQFASQELAEKALGKHKERIGHRYIEVFKSSQEEVRSYSDPPLKFMSVQRPGPYDRPGTARRYIGIVKQAGLDRMRSGAYSAGYGGYEEYSGLSDGYGFTTDLFGRDLSYCLSGMYDHRYGDSEFTVQSTTGHCVHMRGLPYKATENDIYNFFSPLNPVRVHIEIGPDGRVTGEADVEFATHEEAVAAMSKDRANMQHRYIELFLNSTTGASNGAYSSQVMQGMGVSAAQATYSGLESQSVSGCYGAGYSGQNSMGGYD | not soluble
MGSDKIHHHHHHMAEKFDAIVVGAGPAGNAAAYTMAKAGLSVLQLERGETPGTKNVQGAILYADALERIIPDFRDDAPLERHIIEQRMWVLDEKSFIGTNYRSDAFNSDQPNRYTILRAPFDKWFSGKVKEAGALVICETTVTELIQEGKKVIGVRTDREGGDIYADVVILADGVNSLLAKKAGFHGELEAKNVALAVKEIHFLPEEIVQSRFNIKGNEGVVIEIAGAVTHGMVGTAFLYTNKESITLGIGCLLSDFKNAGIAPYTLLEKLKAHPAIAPLIEGGEMKEYAAHLIPEGGYKAVPTLYGEGWMIAGDSAGLVNAVHREGSNLAMTSGRLAAETVIALKEMKLPCTAPHLARYKTALDDSFVMKDLRKYKELPDILHGNPHFFSVYPQLLNRAAHTMLMVDGQDKHSKEKTIRGSFVQQRSLWGLVGDAYRMWRATR | not soluble
MSEISIKRAHENEKDAEEDMEPATKKIKSDDVTEEQEKPEIVEKAEKVKSMKKEEAGSLKSPPNDEMESEFTHVLNELSKQKETIKKLLDDLRADNKKRKTHNIRTIFQRKD | not soluble
MSLNARSYLEQQLTGQNANAANALALAITQSQADKAMAETLINATFDQGYFHHIRWQGADGKVRVDRVNEAVFPAAPGWFRALLPLSPQPGSALVTAGWMQAGEIRVEAALGYAYESLWRGALQTMLWLLGTGLLAGLLGSIDIFKLRRDLQRVVNQARAISEHRFQRMTEPKVPELARVVGAMNQMVERLQSFLGEQSEEVEQLRRERHTDPVTGLPNREALEQAVSSTLAEEDDVRGCLLLLRLAGLAELNQRLGGERADALLVRLAADLEDLAARRKGWMAARLRGADFAVFCPELDMDGGRQLAETLCEQLALYRQMGLSDRDGIGHIGVCGIVQGDGLASLLARASQALAEAEAAGDNQWRVDDGAGPDVGSEWDWRELIEAACREHSLRLRWFPVRDAARGILWQEGMLYRPPMDGLPAINAMRLVSHSLRLGLSHLADLEALRLALADAPGAALAVNLSPASLAARGFQWQVTEMLAGSRATVSFEFDEAGLDEHWAAFLAFGEAVKGAGHRLAVEIRGHRLELVARLNQAGIDYLVLDGALTRGIHRDEGRKVLVKGVQRMTSLMGARLIAKGVASEEDARLLLELRVDGLTGPAEGHHHHHH | not soluble
MADWVTGKVTKVQNWTDALFSLTVHAPVLPFTAGQFTKLGLEIDGERVQRAYSYVNSPDNPDLEFYLVTVPDGKLSPRLAALKPGDEVQVVSEAAGFFVLDEVPHCETLWMLATGTAIGPYLSILRLGKDLDRFKNLVLVHAARYAADLSYLPLMQELEKRYEGKLRIQTVVSRETAAGSLTGRIPALIESGELESTIGLPMNKETSHVMLCGNPQMVRDTQQLLKETRQMTKHLRRRPGHMTAEHYW | soluble
MEELQYFPYERLRPNQREFIEIVKEAVKRGENLIVEAPTGFGKTISVLAGVLPYAISLGYKVVYLARTHKQMDRVIEELKKIRERNEVSGIEFRSRRDLCLHSYIQTFVQDAYTSMIVCKTLRKLGKCPFFENIKEKRDRVEEIVRFFLNSPPFPHEVLEYSELLELCPYEITKKIGEKANVIVASYLYMISPPIRQAFLENLGVDYSDLIVIFDEAHNLPDQAISALSDRLSIRSIERAIKEAEEYGEKDIENFLSILLRGLEILYKEKLENYESEEVPIRPEEVFLHVASVLGWSGREIGMMLEDMIEVGDAIREDRIERNLPPRSYVGRVGEFLWNWLALREREDYLHLFTKERGLALELVALDPSVALEFLEEVHSAIFMSGTLSPLEAFRDIIGVKAELKKFPRMIKRENAIVLVARDVSTRGIERSPSLYRRISEYIFEAVRNTPKNVGVFTASYEVLEGILSTNVHIKIEEEIGKKVFIEKRDAPSRENDEMIRAFKEESKGKGAVLFGVMGGRNSEGQDYSGDEMNGVVLVGIPYARPTPRVQAQIRYFEKKFPGKGRYYGYVLPAHRKLTQAAGRVHRSEEEKGSIVILDYRVLWKSVKKDLPDWMVETMIPVTLPHYENKTLEHHHHHH | not soluble
MSLQSDMLAQSDMLACREMIKEGSHTFHAASKVLPRRISDPAIALYAFCRVADDAVDLGLDRAAAVELLKDRLDRACRGVPRAYPSDRAFADVVARFSIPPAIPEALIEGLEWDAQGRRFETLSDLYSYCARVAGTVGVMMTLVMGQRKPDIVARACDLGCAMQLTNIARDIGEDARNGRIYMPLSWMREAGLDPETWLANPKFTPEIASIVKRLIDTADALYDRATLGIANLPRSCRPGIFAARALYAEIGREVERSGLDSVSSRAVVSTGRKLAVLARLLAFQETEWAPAKYLPAKFGDMEETKFLVDAVIAHPVREGHHHHHH | soluble
MRVNDVNLMRYIQQLSLERKAPTPGSFLFNTVSELAVQQKLRGQIEGYKTTLSQIYNGIGLLNTANAGLESISTALQRARELAVQASNATLTDVERSMIQKEYEEIMRGVKRIIQQTTYNEQRVLAGDVRNLVIQTGPNEGQNVTVNIPNLEETLSELFEVDLSTFEGAQRSLETIDQALENISQIRGNVGSWMNRLESSARSVMNSYTELFKTESLFEPSVAELLLESTKEDILRQTALTGILFRMENAGNVLKLLM | not soluble
